Measurements taken from PMC5446187, “USP9X counteracts differential ubiquitination of NPHP5 by MARCH7 and BBS11 to regulate ciliogenesis” (PLoS Genetics, 2017).

How the values were obtained:
BBS11/TRIM32, endogenous = target: T1, BBS11/TRIM32, endogenous (human (endogenous in HEK293), UniProt Q13049 1-653); assay: pull-down; 1 μg purified Flag-NPHP5 mixed with 1 μg purified USP9X, BBS11 or MARCH7 bound to beads, 4°C, 2 h, extensive washing, Western blot; settings: both partners purified
T1 construct: E3 ubiquitin ligase BBS11/TRIM32, endogenous in HEK293; also called endogenous BBS11; source: endogenous, HEK293 lysate; also immunoprecipitated from HEK293 with anti-BBS11 antibody, 500 mM NaCl washes, kept on beads
T1 sequence (looked up): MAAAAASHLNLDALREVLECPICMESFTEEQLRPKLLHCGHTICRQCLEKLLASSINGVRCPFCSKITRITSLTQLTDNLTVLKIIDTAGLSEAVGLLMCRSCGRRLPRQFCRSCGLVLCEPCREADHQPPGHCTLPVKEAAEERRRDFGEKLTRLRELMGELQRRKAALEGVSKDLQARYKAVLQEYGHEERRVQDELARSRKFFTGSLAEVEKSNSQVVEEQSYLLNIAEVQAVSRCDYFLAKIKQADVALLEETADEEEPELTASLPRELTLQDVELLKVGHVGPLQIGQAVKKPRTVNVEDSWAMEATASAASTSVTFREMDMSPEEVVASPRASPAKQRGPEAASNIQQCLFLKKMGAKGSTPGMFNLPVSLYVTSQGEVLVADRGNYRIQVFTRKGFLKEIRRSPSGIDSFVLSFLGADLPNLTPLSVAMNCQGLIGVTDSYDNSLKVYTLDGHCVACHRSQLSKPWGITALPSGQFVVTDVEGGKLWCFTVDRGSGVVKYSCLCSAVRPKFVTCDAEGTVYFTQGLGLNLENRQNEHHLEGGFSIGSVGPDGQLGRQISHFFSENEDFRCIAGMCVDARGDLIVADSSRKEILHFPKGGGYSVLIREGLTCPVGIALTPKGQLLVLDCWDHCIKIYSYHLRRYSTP

[1] = target: T2, MARCH7/axotrophin, endogenous (human (endogenous in HEK293), UniProt Q9H992 1-704); assay: as above; settings: both partners purified
T2 construct: E3 ubiquitin ligase MARCH7/axotrophin, endogenous in HEK293; also called endogenous MARCH7; source: endogenous, HEK293 lysate; also immunoprecipitated from HEK293 with anti-MARCH7 antibody, 500 mM NaCl washes, kept on beads
T2 sequence (looked up): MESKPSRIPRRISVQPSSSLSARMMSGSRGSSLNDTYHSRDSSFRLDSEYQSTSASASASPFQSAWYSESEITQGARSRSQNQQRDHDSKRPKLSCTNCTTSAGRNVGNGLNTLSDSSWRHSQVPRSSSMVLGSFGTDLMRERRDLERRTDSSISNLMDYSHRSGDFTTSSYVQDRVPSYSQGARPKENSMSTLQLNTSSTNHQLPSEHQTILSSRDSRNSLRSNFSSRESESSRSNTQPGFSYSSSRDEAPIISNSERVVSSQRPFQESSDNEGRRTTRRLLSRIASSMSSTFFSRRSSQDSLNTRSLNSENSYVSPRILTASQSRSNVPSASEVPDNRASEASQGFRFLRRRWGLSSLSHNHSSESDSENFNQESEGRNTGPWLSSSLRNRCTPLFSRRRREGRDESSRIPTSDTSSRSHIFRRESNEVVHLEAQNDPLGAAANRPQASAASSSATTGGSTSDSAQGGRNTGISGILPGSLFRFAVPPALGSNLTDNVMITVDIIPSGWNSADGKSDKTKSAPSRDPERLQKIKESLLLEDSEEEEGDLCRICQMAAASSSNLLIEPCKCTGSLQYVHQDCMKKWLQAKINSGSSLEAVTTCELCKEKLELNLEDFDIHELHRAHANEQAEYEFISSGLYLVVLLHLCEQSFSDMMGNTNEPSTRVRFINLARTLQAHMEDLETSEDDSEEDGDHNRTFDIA

[2] = target: T3, GFP-USP9X wild type (mouse) (mouse, UniProt P70398 1-2559); assay: co-IP; anti-Flag immunoprecipitation from lysates of HEK293 cells expressing Flag-NPHP5 or its fragments (alone or with GFP-tagged partner), Western blot; settings: partners not purified
T3 construct: mouse USP9X cDNA (from S. Wood) sub-cloned into pEGFP-C1; pEGFP-C1 is expected to place EGFP at the N-terminus (surmise); also called pEGFP-C1-USP9X; purified USP9X; source: HEK293, transfected, in lysate; also purified from HEK293 (anti-GFP immunoprecipitation, 500 mM NaCl washes, kept on beads)

[3] = target: T4, GFP-USP9X catalytically inactive mutant (C1566S) (mouse) (mouse, UniProt P70398 1-2559, C1566S); assay: as above; settings: partners not purified
T4 construct: mouse USP9X C1566S cDNA (from S. Wood) sub-cloned into pEGFP-C1; pEGFP-C1 is expected to place EGFP at the N-terminus (surmise); also called GFP-USP9X mutant (C1566S); pEGFP-C1-USP9X(C1566S); source: HEK293, transfected, in lysate; also purified from HEK293 (anti-GFP immunoprecipitation, 500 mM NaCl washes, kept on beads)

Measured: binding result

T3 sequence (P70398 whole entry, the tested form may be a part): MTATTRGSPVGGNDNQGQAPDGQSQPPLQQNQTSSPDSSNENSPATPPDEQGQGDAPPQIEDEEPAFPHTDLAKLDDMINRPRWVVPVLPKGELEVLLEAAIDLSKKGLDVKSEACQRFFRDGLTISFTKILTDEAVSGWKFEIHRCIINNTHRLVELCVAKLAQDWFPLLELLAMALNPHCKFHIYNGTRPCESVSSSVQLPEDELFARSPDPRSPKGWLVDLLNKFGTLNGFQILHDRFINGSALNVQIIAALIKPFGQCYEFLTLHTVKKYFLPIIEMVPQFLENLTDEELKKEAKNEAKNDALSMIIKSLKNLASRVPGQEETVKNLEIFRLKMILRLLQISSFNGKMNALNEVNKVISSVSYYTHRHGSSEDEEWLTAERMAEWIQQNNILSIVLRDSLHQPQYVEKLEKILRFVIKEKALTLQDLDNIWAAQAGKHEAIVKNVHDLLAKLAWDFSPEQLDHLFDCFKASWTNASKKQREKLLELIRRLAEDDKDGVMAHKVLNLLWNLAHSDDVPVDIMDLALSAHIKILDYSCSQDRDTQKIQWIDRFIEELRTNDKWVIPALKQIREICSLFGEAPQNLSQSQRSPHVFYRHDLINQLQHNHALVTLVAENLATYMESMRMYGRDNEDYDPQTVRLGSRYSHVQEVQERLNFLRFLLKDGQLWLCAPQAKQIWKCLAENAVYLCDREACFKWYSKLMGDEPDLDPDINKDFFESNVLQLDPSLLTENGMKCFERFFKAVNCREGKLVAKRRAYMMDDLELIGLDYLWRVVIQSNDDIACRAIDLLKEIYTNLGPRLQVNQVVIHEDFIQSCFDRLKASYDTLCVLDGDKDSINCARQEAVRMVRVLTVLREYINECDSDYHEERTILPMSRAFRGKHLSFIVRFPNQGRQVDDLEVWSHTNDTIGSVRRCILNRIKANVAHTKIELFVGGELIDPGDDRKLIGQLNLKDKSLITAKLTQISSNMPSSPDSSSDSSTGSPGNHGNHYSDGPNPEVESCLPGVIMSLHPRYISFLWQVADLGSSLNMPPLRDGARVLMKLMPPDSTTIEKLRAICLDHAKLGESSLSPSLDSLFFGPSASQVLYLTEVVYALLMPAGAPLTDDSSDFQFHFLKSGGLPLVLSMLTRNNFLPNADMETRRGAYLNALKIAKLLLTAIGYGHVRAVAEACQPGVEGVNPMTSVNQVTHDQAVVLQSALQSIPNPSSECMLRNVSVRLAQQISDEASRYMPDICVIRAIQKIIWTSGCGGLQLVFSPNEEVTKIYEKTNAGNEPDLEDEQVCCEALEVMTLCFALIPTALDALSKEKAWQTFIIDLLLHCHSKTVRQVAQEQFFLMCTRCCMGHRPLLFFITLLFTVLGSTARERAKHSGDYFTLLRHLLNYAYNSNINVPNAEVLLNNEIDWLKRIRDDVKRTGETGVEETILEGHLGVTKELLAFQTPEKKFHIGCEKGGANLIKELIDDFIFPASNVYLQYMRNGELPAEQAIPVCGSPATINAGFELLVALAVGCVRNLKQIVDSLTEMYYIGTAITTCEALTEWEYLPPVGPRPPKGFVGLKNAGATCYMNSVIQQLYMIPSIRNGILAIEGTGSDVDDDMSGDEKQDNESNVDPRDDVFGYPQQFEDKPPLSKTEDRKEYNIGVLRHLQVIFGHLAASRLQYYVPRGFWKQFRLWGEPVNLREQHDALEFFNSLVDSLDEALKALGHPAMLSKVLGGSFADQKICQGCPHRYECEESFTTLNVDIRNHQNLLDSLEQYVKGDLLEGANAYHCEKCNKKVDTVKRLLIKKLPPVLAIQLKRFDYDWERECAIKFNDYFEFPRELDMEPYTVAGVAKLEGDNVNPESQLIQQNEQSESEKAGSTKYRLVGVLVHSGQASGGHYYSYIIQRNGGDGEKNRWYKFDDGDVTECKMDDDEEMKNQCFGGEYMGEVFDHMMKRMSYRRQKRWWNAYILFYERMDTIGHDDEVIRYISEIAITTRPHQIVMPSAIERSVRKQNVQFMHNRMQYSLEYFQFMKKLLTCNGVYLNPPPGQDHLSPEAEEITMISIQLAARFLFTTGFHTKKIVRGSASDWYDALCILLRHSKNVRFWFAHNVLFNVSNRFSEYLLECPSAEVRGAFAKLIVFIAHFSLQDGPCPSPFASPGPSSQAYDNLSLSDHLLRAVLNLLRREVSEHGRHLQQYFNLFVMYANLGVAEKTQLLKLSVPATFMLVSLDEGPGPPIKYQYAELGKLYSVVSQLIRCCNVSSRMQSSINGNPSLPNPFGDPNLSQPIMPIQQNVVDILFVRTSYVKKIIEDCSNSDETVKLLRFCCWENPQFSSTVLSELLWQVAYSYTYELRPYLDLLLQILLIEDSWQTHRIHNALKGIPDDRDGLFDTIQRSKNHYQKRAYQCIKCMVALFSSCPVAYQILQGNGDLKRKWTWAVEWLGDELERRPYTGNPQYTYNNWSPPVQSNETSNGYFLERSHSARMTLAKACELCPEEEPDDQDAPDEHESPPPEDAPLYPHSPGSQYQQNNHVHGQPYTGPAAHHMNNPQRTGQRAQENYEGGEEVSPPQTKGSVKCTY
T4 sequence (P70398 whole entry C1566S): as the sequence (P70398 whole entry, the tested form may be a part) above, with C1566S counted along it

B1: Flag-NPHP5 (nephrocystin-5), full length 1-598 (natural protein, UniProt Q15051 1-598, looked up)
chain: MKPTGTDPRILSIAAEVAKSPEQNVPVILLKLKEIINITPLGSSELKKIKQDIYCYDLIQYCLLVLSQDYSRIQGGWTTISQLTQILSHCCVGLEPGEDAEEFYNELLPSAAENFLVLGRQLQTCFINAAKAEEKDELLHFFQIVTDSLFWLLGGHVELIQNVLQSDHFLHLLQADNVQIGSAVMMMLQNILQINSGDLLRIGRKALYSILDEVIFKLFSTPSPVIRSTATKLLLLMAESHQEILILLRQSTCYKGLRRLLSKQETGTEFSQELRQLVGLLSPMVYQEVEEQKLHQAACLIQAYWKGFQTRKRLKKLPSAVIALQRSFRSKRSKMLLEINRQKEEEDLKLQLQLQRQRAMRLSRELQLSMLEIVHPGQVEKHYREMEEKSALIIQKHWRGYRERKNFHQQRQSLIEYKAAVTLQRAALKFLAKCRKKKKLFAPWRGLQELTDARRVELKKRVDDYVRRHLGSPMSDVVSRELHAQAQERLQHYFMGRALEERAQQHREALIAQISTNVEQLMKAPSLKEAEGKEPELFLSRSRPVAAKAKQAHLTTLKHIQAPWWKKLGEESGDEIDVPKDELSIELENLFIGGTKPP
notes: also called IQCB1; source: HEK293, transfected, in lysate; also purified from HEK293 (anti-Flag immunoprecipitation, 500 mM NaCl washes, eluted with Flag peptide)
binds: BBS11/TRIM32, endogenous | [1] | [2] | [3]
